From article PMC7597377 (Science signaling, 2020)
Like-named read-outs stand apart in the source and are kept apart here.

Assays:
Assay in all cases: FRET or BRET
[1] = molecular target: T1, ERα ligand-binding domain Q375E (ERα-LBD-biotin) (human, biotin)
[2] = molecular target: T2, ERα ligand-binding domain Q375A (ERα-LBD-biotin) (human, biotin)
[3] = molecular target: T3, ERα ligand-binding domain, wild type (ERα-LBD-biotin) (human, biotin)
[4] = molecular target: T4, ERα ligand-binding domain Q375K (ERα-LBD-biotin) (human, biotin)
[5] = molecular target: T1, ERα ligand-binding domain Q375E …; remark: listed apart in the source
[6] = molecular target: T2, ERα ligand-binding domain Q375A …; remark: listed apart in the source
[7] = molecular target: T3, ERα ligand-binding domain, wild type …; remark: listed apart in the source
[8] = molecular target: T4, ERα ligand-binding domain Q375K …; remark: listed apart in the source
[9] = molecular target: T1, ERα ligand-binding domain Q375E …; remark: listed apart in the source
[10] = molecular target: T2, ERα ligand-binding domain Q375A …; remark: listed apart in the source
[11] = molecular target: T3, ERα ligand-binding domain, wild type …; remark: listed apart in the source
[12] = molecular target: T4, ERα ligand-binding domain Q375K …; remark: listed apart in the source
[13] = molecular target: T1, ERα ligand-binding domain Q375E …; remark: listed apart in the source
[14] = molecular target: T2, ERα ligand-binding domain Q375A …; remark: listed apart in the source
[15] = molecular target: T3, ERα ligand-binding domain, wild type …; remark: listed apart in the source
[16] = molecular target: T4, ERα ligand-binding domain Q375K …; remark: listed apart in the source
[17] = molecular target: T1, ERα ligand-binding domain Q375E …; remark: listed apart in the source
[18] = molecular target: T2, ERα ligand-binding domain Q375A …; remark: listed apart in the source
[19] = molecular target: T3, ERα ligand-binding domain, wild type …; remark: listed apart in the source
[20] = molecular target: T4, ERα ligand-binding domain Q375K …; remark: listed apart in the source
[21] = molecular target: T1, ERα ligand-binding domain Q375E …; remark: listed apart in the source
[22] = molecular target: T2, ERα ligand-binding domain Q375A …; remark: listed apart in the source
[23] = molecular target: T3, ERα ligand-binding domain, wild type …; remark: listed apart in the source
[24] = molecular target: T4, ERα ligand-binding domain Q375K …; remark: listed apart in the source

B1: SRC1 NR interaction domain (ca. 200 amino acids), FRET acceptor-labeled (domain or fragment)
chain: PSRLNIQPAKAESKDNKEIASILNEMIQSDNSSSDGKPLDSGLLHNNDRLSDGDSKYSQTSHKLVQLLTTTAEQQLRHADIDTSCKDVLSCTGTSNSASANSSGGSCPSSHSSLTERHKILHRLLQEGSPSDITTLSVEPDKKDSASTSVSVTGQVQGNSSIKLELDASKKKESKDHQLLRYLLDKDEKDLRSTPNLSLDDVKVKVEKKEQ
modifications: FRET acceptor label (not named)
- fold reduction in SRC1 binding vs WT ER (Kd mutant/Kd WT) [1]: 3.4 fold
- fold reduction in SRC1 binding vs WT ER (Kd mutant/Kd WT) [2]: 8 fold
- Kd [3]: 6.4 nM
- Kd [4]: 2.1 nM
- fold reduction in SRC1 binding vs WT ER (Kd mutant/Kd WT) [5]: 4.2 fold
- fold reduction in SRC1 binding vs WT ER (Kd mutant/Kd WT) [6]: 5.5 fold
- fold increase in SRC1 binding with ligand vs E2 (Kd E2/Kd compound) [7]: 0.3 fold
- fold increase in SRC1 binding with ligand vs E2 (Kd E2/Kd compound) [8]: 0.16 fold
- fold reduction in SRC1 binding vs WT ER (Kd mutant/Kd WT) [8]: 0.62 fold
- fold reduction in SRC1 binding vs WT ER (Kd mutant/Kd WT) [9]: 11 fold
- fold reduction in SRC1 binding vs WT ER (Kd mutant/Kd WT) [10]: 17 fold
- Kd [11]: 3.4 nM
- Kd [12]: 1.7 nM
- fold reduction in SRC1 binding vs WT ER (Kd mutant/Kd WT) [13]: 2.8 fold
- fold reduction in SRC1 binding vs WT ER (Kd mutant/Kd WT) [14]: 8.8 fold
- Kd [15]: 6.8 nM
- Kd [16]: 2.2 nM
- fold reduction in SRC1 binding vs WT ER (Kd mutant/Kd WT) [17]: 7.4 fold
- fold reduction in SRC1 binding vs WT ER (Kd mutant/Kd WT) [18]: 21 fold
- Kd [19]: 3.5 nM
- Kd [20]: 1.5 nM
- fold reduction in SRC1 binding vs WT ER (Kd mutant/Kd WT) [21]: 8.7 fold
- fold reduction in SRC1 binding vs WT ER (Kd mutant/Kd WT) [22]: 16 fold
- Kd [23]: 3 nM
- Kd [24]: 1.6 nM
